Reference: US20170015742A1 (published 2017)

How the values were obtained:
Human PDGF-BB = biological target: T1, Human PDGF-BB (human, UniProt P01127 82-190); assay: SPR (Biacore), antibody captured via anti-human Fc, antigen in solution
T1 construct: Recombinant human PDGF-BB, a homodimer of two B chains; also called hPDGF-BB; huPDGF-BB
Experimental: For example, approximately 9000 RU of goat anti-human Fc specific polyclonal antibody (Thermo Fisher Scientific Inc., Rockford, Ill.) diluted in 10 mM sodium acetate (pH 4.5) is directly immobilized across a CM5 research grade biosensor chip using a standard amine coupling kit according to manufacturer's instructions and procedures at 25 μg/ml. Unreacted moieties on the biosensor surface were blocked with ethanolamine. For kinetic analysis, rate equations derived from the 1:1 Langmuir binding model were fitted simultaneously to multiple antigen injections (using global fit analysis) with the use of Scrubber 2 (BioLogic Software), Biacore Biaevaluation 4.0.1 software or Biacore T100 Evaluation software. Purified antibodies or DVD-Ig molecules were diluted in running buffer for capture across goat anti-human Fc reaction surfaces. Antibodies or DVD-Ig molecules to be captured as a ligand (1 μg/ml) were injected over reaction matrices at a flow rate of 10 μl/minute. During the assay, all measurements were referenced against the capture surface alone (i.e., with no captured antibody or DVD-Ig molecule). […] The equilibrium dissociation constant KD (M) of the reaction between antibodies and the target antigen was then calculated from the kinetic rate constants by the following formula: KD=Koff/Kₒₙ. Binding was recorded as a function of time and kinetic rate constants were calculated.

[1] = biological target: recombinant human PDGF-BB (human, UniProt P01127 82-190); assay: cell-based or functional assay
recombinant human PDGF-BB, sequence (P01127 82-190 limits assumed): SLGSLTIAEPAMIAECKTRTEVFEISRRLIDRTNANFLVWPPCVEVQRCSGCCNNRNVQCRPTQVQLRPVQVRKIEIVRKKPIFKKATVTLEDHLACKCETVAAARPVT

T1 sequence (P01127 82-190 limits assumed): as above

Kd (Human PDGF-BB) [pM]	kon (Human PDGF-BB) [M⁻¹ s⁻¹]	NIH-3T3 hPDGF-BB Potency IC50 [1] [pM]	Binder
≤ 450	≥ 1e+07		hBDI-5H1.3 (antibody, V domains shown, Humanized IgG) VH: EVTLRESGPALVKPTQTLTLTCTFSGFSLSTFGMGVGWIRQPPGKALEWLANIWWDDDKYYNPSLKNRLTISKDTSKNQVVLTMTNMDPVDTATYYCARISTGISSYYVMDAWGQGTTVTVSS VL: EIVLTQSPGTLSLSPGERATLSCERSSGDIGDTYVSWYQQKPGQAPRLLIYGNDQRPSGIPDRFSGSGSGTDFTLTISRLEPEDFAVYYCQSYDSDIDIVFGGGTKVEIK
≤ 310	≥ 1e+07		hBDI-5H1.9 (antibody, V domains shown, Humanized IgG) VH: EVTLRESGPALVKPTQTLTLTCTFSGFSLSTFGMGVGWIRQPPGKALEWLANIWWDDDKYYNPSLKNRLTISKDTSKNQAVLTITNMDPVDTATYYCARISTGISSYYVMDAWGQGTTVTVSS VL: DFVLTQSPDSLAVSLGERATINCERSSGDIGDTYVSWYQQKPGQPPKNVIYGNDQRPSGVPDRFSGSGSGNSATLTISSLQAEDVAVYFCQSYDSDIDIVFGGGTKVEIK
≤ 230	≥ 1e+07		hBDI-5H1.10 (antibody, V domains shown, Humanized IgG) VH: EVTLRESGPALVKPTQTLTLTCTFSGFSLSTFGMGVGWIRQPPGKALEWLANIWWDDDKYYNPSLKNRLTISKDTSKNQAVLTITNMDPVDTATYYCARISTGISSYYVMDAWGQGTTVTVSS VL: DFQLTQSPSSLSASVGDRVTITCERSSGDIGDTYVSWYQQKPGKAPKNVIYGNDQRPSGVPSRFSGSGSGNSATLTISSLQPEDFATYFCQSYDSDIDIVFGQGTKVEIK
≤ 1400	≥ 1e+07		hBDI-5H1.4 (antibody, V domains shown, Humanized IgG) VH: EVTLRESGPALVKPTQTLTLTCTFSGFSLSTFGMGVGWIRQPPGKALEWLANIWWDDDKYYNPSLKNRLTISKDTSKNQVVLTMTNMDPVDTATYYCARISTGISSYYVMDAWGQGTTVTVSS VL: EFVLTQSPGTLSLSPGERATLSCERSSGDIGDTYVSWYQQKPGQAPRLVIYGNDQRPSGIPDRFSGSGSGTDFTLTISRLEPEDFAVYYCQSYDSDIDIVFGGGTKVEIK
≤ 370	≥ 1e+07		hBDI-5H1.11 (antibody, V domains shown, Humanized IgG) VH: EVQLVESGGGLVQPGGSLRLSCAFSGFSLSTFGMGVGWIRQAPGKGLEWLANIWWDDDKYYNPSLKNRLTISKDTSKNQAYLQINSLRAEDTAVYYCARISTGISSYYVMDAWGQGTLVTVSS VL: DFVLTQSPDSLAVSLGERATINCERSSGDIGDTYVSWYQQKPGQPPKNVIYGNDQRPSGVPDRFSGSGSGNSATLTISSLQAEDVAVYFCQSYDSDIDIVFGGGTKVEIK
≤ 230	≥ 1e+07		hBDI-5H1.12 (antibody, V domains shown, Humanized IgG) VH: EVQLVESGGGLVQPGGSLRLSCAFSGFSLSTFGMGVGWIRQAPGKGLEWLANIWWDDDKYYNPSLKNRLTISKDTSKNQAYLQINSLRAEDTAVYYCARISTGISSYYVMDAWGQGTLVTVSS VL: DFQLTQSPSSLSASVGDRVTITCERSSGDIGDTYVSWYQQKPGKAPKNVIYGNDQRPSGVPSRFSGSGSGNSATLTISSLQPEDFATYFCQSYDSDIDIVFGQGTKVEIK
		94	9E8.4-SS-4G8.3 DVD-Ig (PR-1563990) (bispecific antibody, human IgG1, kappa, L234A L235A) heavy: not shown light: EFVLTQSPGTLSLSPGERATLSCERSSGDIGDSYVSWYQQKPGQAPRLVIYADDQRPSGIPDRFSGSGSGTDFTLTISRLEPEDFAVYYCQSYDINIDIVFGGGTKVEIKGTVAAPDTVLTQSPATLSLSPGERATLSCRASESVSTHMHWYQQKPGQAPRLLIYGASNLESGVPARFSGSGSGTDFTLTISSLEPEDFAVYFCQQSWNDPFTFGQGTKLEIKRTVAAPSVFIFPPSDEQLKSGTASVVCLLNNFYPREAKVQWKVDNALQSGNSQESVTEQDSKDSTYSLSSTLTLSKADYEKHKVYACEVTHQGLSSPVTKSFNRGEC
